Assay [1] concerns the target PapD (wild type) (E. coli) (UniProt P15319). The assay is described as follows: cell-based or functional assay.
The target is the same in assay [2]. Nature of the assay: soluble inhibition ELISA: 25-fold molar excess of peptide, 100 pmol/well PapD, G1′-19′WT-coated wells.

We go through three substances from patent publication US7025971.

PapD (wild type) (E. coli), sequence (P15319 22-239 limits assumed): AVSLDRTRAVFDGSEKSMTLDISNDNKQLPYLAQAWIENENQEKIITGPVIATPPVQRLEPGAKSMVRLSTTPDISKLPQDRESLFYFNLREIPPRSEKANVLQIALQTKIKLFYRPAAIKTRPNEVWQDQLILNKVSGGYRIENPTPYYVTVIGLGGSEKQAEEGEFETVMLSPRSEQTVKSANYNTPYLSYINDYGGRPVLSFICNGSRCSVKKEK

In assay [1], “MBP/G1′-81′ (from UniProt P0AEX9 27-392)” yielded an HA titer of 82 and a Piliation percentage of 40%.
For G2′-21′amide (peptide), in assay [2], the % Inhibition is 0%.
In assay [1], “MBP/G1′-140′ (from UniProt P0AEX9 27-392)” yielded an HA titer of 4, a Piliation percentage of 10% and a decrease of HA titer of 30 fold.

Broadly, the % Inhibition is the relative decrease from the control value, in per cent.
